T1: matriptase-3 (TMPRSS7) over-expressed in HEK293T cells (human, UniProt Q7RTY8 1-843)
T1 sequence: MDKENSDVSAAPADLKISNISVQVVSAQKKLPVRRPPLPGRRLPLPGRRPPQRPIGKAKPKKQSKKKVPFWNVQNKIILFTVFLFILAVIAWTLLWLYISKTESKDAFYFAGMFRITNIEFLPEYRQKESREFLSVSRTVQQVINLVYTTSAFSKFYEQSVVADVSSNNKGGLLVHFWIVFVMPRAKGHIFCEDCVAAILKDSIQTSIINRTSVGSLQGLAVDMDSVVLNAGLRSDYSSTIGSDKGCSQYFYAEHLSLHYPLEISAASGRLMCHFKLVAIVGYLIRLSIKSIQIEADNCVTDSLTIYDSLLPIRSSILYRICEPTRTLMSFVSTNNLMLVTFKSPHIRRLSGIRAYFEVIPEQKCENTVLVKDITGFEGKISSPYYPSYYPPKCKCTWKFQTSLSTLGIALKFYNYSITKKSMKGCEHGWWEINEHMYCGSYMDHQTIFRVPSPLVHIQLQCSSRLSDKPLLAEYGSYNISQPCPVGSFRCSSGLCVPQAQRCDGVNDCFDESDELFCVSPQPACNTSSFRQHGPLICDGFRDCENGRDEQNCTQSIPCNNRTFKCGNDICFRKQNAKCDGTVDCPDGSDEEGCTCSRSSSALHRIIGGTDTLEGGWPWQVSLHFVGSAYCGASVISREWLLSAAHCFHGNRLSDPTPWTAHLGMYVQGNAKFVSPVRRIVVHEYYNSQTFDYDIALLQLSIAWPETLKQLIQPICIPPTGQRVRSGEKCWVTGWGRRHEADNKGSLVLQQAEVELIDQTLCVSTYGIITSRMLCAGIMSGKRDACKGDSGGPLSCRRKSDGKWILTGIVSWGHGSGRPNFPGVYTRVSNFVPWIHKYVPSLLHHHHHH

T2: cynomolgus monkey TMPRSS6 expressed on HEK293T cells (CynoTMPRSS6-(His)6) (cynomolgus monkey, UniProt Q8IU80 10-811 (human entry))
T2 chain: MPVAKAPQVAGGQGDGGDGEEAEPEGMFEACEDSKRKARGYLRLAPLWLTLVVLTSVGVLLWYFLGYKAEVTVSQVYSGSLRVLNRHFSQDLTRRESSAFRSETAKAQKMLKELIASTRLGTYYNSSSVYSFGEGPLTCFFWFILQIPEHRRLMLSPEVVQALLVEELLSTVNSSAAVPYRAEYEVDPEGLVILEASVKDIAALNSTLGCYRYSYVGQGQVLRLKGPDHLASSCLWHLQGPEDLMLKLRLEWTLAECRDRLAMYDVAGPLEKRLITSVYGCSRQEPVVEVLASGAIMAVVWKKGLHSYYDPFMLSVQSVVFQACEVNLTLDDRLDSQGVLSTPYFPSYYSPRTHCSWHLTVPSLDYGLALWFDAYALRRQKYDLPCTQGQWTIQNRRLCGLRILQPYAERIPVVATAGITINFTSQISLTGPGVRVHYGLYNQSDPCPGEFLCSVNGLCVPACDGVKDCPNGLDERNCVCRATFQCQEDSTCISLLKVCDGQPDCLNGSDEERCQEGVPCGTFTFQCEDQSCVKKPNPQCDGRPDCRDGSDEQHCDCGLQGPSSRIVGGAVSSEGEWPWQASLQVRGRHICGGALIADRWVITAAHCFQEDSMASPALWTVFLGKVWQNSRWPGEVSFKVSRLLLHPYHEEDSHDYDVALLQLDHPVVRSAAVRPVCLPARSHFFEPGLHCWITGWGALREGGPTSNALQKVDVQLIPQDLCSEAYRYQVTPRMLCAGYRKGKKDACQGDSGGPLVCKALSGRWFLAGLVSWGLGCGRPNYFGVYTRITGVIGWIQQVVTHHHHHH

B1: MWTx-001 anti-TMPRSS6 antibody (antibody, mouse IgG2a, kappa, V domains shown)
VH: QVQLQQPGAELAKPGASVKMSCKASGYTFTSYWITWVKQRPGQDLEWIGNIYPGSGSTYYNEKFKSKATLTVDTSSRTAYMQLSSLTSADSAVYYCAPYDSDYAMDYWGQGTSVTVSS
VL: DIKMTQSPSSMYASLGERVTITCKASQDINNYLSWFQQKPGKSPKTLIYRANRLVDGVPSRVSGSGSGQDYSLTISSLEYEDVGIYFCLQYDEFPLTFGAGTKLELKR
notes: Mouse monoclonal antibody from a hybridoma (ATCC PTA-126759)
B2: MWTx-002 anti-TMPRSS6 antibody (antibody, mouse IgG2b, kappa, V domains shown)
VH: EVQLQQSGAELVKPGASVKLSCTASGFNIKDYYIHWVKERTEQGLEWFGRIDPEDGESEYAPKFQGKATLTADTSSNTAYLQLSSLTSEDTAVYYCTRGDSMMVTYFDYWGQGTTLTVSS
VL: DIVMTQSHKFMSTSVGDRVSITCKASQDVSTAVAWYQQKPGQSPKLLIYWAFTRHTGVPDRFTSTGSGTDYALTISSVQAEDLALYYCQQHYRSPWTFGGGTKLEIKR
notes: Mouse monoclonal antibody from a hybridoma (ATCC PTA-126760)
B3: MWTx-003 anti-TMPRSS6 antibody (antibody, mouse IgG2b, kappa, V domains shown)
VH: EVQLQQSGAELVKPGASVKLSCTASGFNIEDYYIHWVKERTEQGLEWIGRIDPEDGETTYAPQFQGKATIIPDTSSNTAYMQLSSLTSEDAAVYYCARSIYLDPMDYWGQGTSVTVSS
VL: DIVMTQSHKFMSTSVGDRVSITCKASQDVTTAVAWYQQKPGQSPKILIYWATTRHTGVPDRFTGSISGTTYILTISSVQAEDLALYYCQQHYSTPYTFGGGTKLEIKR
notes: Mouse monoclonal antibody from a hybridoma (ATCC PTA-126761); also called r4K12B (recombinantly expressed version, same HC and LC)
B4: hzMWTx-001Var anti-TMPRSS6 antibody (antibody, human IgG1, kappa, N297A, V domains shown)
VH: EVQLVQSGAEVKKPGASVKVSCKASGYTFTSYWITWVRQAPGQRLEWIGNIYPGSGSTYYNEKFKSKATITRDTSSRTAYMELSSLRSEDTAVYYCAPYDADYAMDYWGQGTLVTVSS
VL: DIQMTQSPSSLSASVGDRVTITCKASQDISNYLSWFQQKPGKAPKLLIYRANRLVEGVPSRFSGSGSGTDFTLTISSLQPEDFATYFCLQYDEFPLTFGGGTKVEIKR
notes: Humanized variant of MWTx-001, human IgG1/kappa
B5: hzMWTx-002Var anti-TMPRSS6 antibody (antibody, human IgG1, kappa, N297A, V domains shown)
VH: EVQLVQSGAEVKKPGASVKVSCKASGFNIKDYYIHWVRQATGQGLEWMGRIDPEDAESEYAPKFQGRVTITADTSTDTAYMELSSLRSEDTAVYYCTRGDSMMVTYFDYWGQGTLVTVSS
VL: DIQMTQSPSSLSASVGDRVTITCKASQDVSTAVAWYQQKPGKAPKLLIYWAFTRHTGVPSRFSGSGSGTDYALTISSLQPEDFATYYCQQHYRSPWTFGGGTKVEIKR
notes: Humanized variant of MWTx-002, human IgG1/kappa
B6: hzMWTx-003Var anti-TMPRSS6 antibody (antibody, human IgG1, kappa, L234A L235A, V domains shown)
VH: QVQLVQSGAEVKKPGASVKVSCKASGFNIEDYYMHWVRQAPGQRLEWMGRIDPEDAETTYSPKFQGRVTIIPDTSANTAYMELSSLRSEDTAVYYCARSIYLDPMDYWGQGTLVTVSS
VL: DIQMTQSPKSLSASVGDRVTITCRASQDVTTALAWYQQKPGQSPKLLIYWATTRHSGVPSRFSGSGSGTDFTLTISSLQPEDFATYYCQQHYSTPYTFGQGTKLEIKR
notes: Humanized variant of MWTx-003, human IgG1/kappa

Each binder was assayed against T1, matriptase-3 (TMPRSS7) over-expressed … (assay: FACS on permeabilized HEK293T cells over-expressing TMPRSS7).
Excerpt: To determine if anti-TMPRSS6 antibodies bind to homologous matriptases, HEK293T cells over-expressing matriptase (ST14) (SEQ ID NO: 100) (FIGS. 5B, 5E, 5H, 5K, 5N, 5Q), and HEK293T cells over-expressing matriptase-3 (TMPRSS7) (SEQ ID NO: 101) (FIGS. 5C, 5F, 5I, 5L, 5O, 5R) were collected (generated in house). HEK293T cells stably expressing human TMPRSS6 (matriptase-2) (SEQ ID NO:97) (generated by LakePharma Inc as described above, FIGS. 5A, 5D, 5G, 5J, 5M, 5P) were used as a positive control and HEK293T cells (FIGS. 5A-5R) were used as a negative control (as described above). Cells were blocked and permeabilized with dPBS + 3% BSA + 0.1% Tween-20 before incubation with various anti-TMPRSS6 antibodies diluted in dPBS + 3% BSA + 0.1% Tween-20. Cells were incubated with anti-TMPRSS6 antibodies and their humanized variants at a concentration of roughly 1 µg/ml for 1 hr. After incubation, cells were washed with dPBS and incubated with goat anti-mouse IgG conjugated with AlexaFluor-488 (Invitrogen, FIGS. 5A-5I) or goat anti-human IgG conjugated with Allophycocyanin (APC) (Jackson Immuno Research, FIGS. 5J-5R) as a 2° antibody. At last, cells were washed with dPBS and re-suspended with dPBS + 1 mM EDTA, and then subjected to FACS analysis using a NOVOCYTE® Flow Cytometer. Bound antibody was determined by excitation at 488 nm and measurement of emission (FITC-A) at 530 nm (FIGS. 5A-5I) or by excitation at 640 nm and measurement of emission (APC-A) at 675 nm (FIGS. 5J-5R). Results for these assays are shown in histogram plots in FIGS. 5A-5R.
B1: no binding (tested: roughly 1 µg/ml). B2: no binding (tested: roughly 1 µg/ml). B3: no binding (tested: roughly 1 µg/ml). B4: no binding (tested: roughly 1 µg/ml). B5: no binding (tested: roughly 1 µg/ml). B6: no binding (tested: roughly 1 µg/ml).

Target: T2, cynomolgus monkey TMPRSS6 expressed on …
Assay: cell surface ELISA on fixed HEK293T cells expressing cynomolgus monkey TMPRSS6
Description: HEK293T cells stably expressing mouse TMPRSS6 (generated by LakePharma Inc as described above, FIGS. 4J, 4L, 4N, 4P, 4R, 4T) or cynomolgus monkey (generated in house as described above, FIGS. 4K, 4M, 4O, 4Q, 4S, 4U) were fixed with methanol (100%), and washed with dPBS (Dulbecco’s phosphate-buffered saline, Corning Cellgro) before incubation with various concentrations of anti-TMPRSS6 antibodies and their humanized variants diluted in BSA medium (DMEM + 1% Pen/Strep + 10 mM HEPES + 1 mg/ml BSA (Sigma-Aldrich)). Purified mouse IgG (FIGS. 4J-4O) or Human IgG1 (FIGS. 4P-4U) was used as a control. After incubation, cells were washed with BSA medium and then incubated with goat anti-mouse (Invitrogen, FIGS. 4J-4O) or anti-human (Millipore, FIGS. 4P-4U) IgG conjugated with HRP as a 2° antibody. Finally, cells were washed with dPBS to remove unbound antibody and color developed with ELISA liquid substrate (Sigma-Aldrich), followed by stopping the reaction with addition of the same volume of ELISA liquid substrate of 1 M H₂SO₄. Bound antibody was measured by absorbance at OD₄₅₀ₙₘ.
B1: binds. B2: binds. B4: binds. B5: binds. B6: binds.

Source: US20230295345A1 (published 2023)
